Measured values reported in paper PMC11673460.

Biological target: cobalamin binding domain of CarH from Thermus thermophilus (Thermus thermophilus)

An aggregation ratio (area of bacteria in aggregates/total area occupied by all bacteria) of E. coli MG1655 displaying CarH (CarH‐eCPX), with AdoB12Cy5, in the dark of 50%, an aggregation ratio of CarH‐displaying E. coli with AdoB12Cy5 under green or red light (aggregates not separated by far‐red light) of under 20% and an aggregation ratio of CarH‐displaying E. coli with AdoB12Cy7.5 under green, red or far‐red light of under 20% were found for “cobalamin binding domain of CarH from Thermus thermophilus (domain or fragment)” in this work. For the same substance, the aggregation ratio of CarH‐displaying E. coli with AdoB12 under green light (aggregates stable under red and far‐red light) was under 20%, the aggregation ratio of E. coli MG1655 displaying CarH (CarH‐eCPX), with AdoB12, in the dark was 50% and the aggregation ratio of E. coli MG1655 displaying CarH (CarH‐eCPX), with AdoB12Cy7.5, in the dark was 50%.
